Patent publication US20070117180A1, “Enzyme producing plasma protein fragment having inhibitory activity to metastasis and growth of cancer and plasma protein fragment produced by fragmentation by said enzyme” (priority 1998, published 2007)

Experiments:
Lung cancer cells (LL/2) = assay: Test for inhibitory activity to metastasis and growth of cancer (number of nodes on the lung surface); assay type: in vivo, mice
Description: The protein fragments prepared as described above were dissolved in a physiological saline and used as a sample for animal tests. As a system for estimating an inhibitory effect to growth of metastasized cancerous focus, cancer capable of metastasis and growth was transplanted to mice where distally metastasized cancerous focus was observed. Lung cancer cells (LL/2; Dainippon Seiyaku K.K.) were subcutaneously transplanted to mice at the back. The animals were bred until a primary cancerous focus grows up to a predetermined size and the primary focus was then removed surgically. The sample was administered to mice intraperitoneally at 1 mg/mouse/day for 10 days. […]
(§1) After completion of each test, mice were dissected. The number of nodes on the lung surface, in case of test for inhibitory activity to metastasis and growth of cancer, or a weight of the lung, for test for inhibitory activity to growth of metastasized cancerous focus, was measured respectively and compared with control groups (Mann Whetney U test). […] In test for inhibitory activity to growth of metastasized cancerous focus, the lung was measured 0.44±0.28 g (n=6) for the control group while it was measured 0.23±0.08 g (n=6) for the group administered with the plasminogen fragment.

[1] = General pharmacological test, effects on the respiratory and circulatory organs; assay type: in vivo; settings: Beagle dog
[2] = tested on: Lewis lung cancer cells (LL/2); assay: Test for inhibitory activity to growth of metastasized cancerous focus (weight of the lung); assay type: in vivo, C57B1 mice; settings: n=6, control 0.44±0.28
Description: The protein fragments prepared as described above were dissolved in a physiological saline and used as a sample for animal tests. As a system for estimating an inhibitory effect to growth of metastasized cancerous focus, cancer capable of metastasis and growth was transplanted to mice where distally metastasized cancerous focus was observed. Lung cancer cells (LL/2; Dainippon Seiyaku K.K.) were subcutaneously transplanted to mice at the back. The animals were bred until a primary cancerous focus grows up to a predetermined size and the primary focus was then removed surgically. […] As a control, mice were administered with a physiological saline alone as used for dissolving the lyophilized sample (test for inhibitory activity to growth of metastasized cancerous focus).
as §1, with “fragment. […]” for “fragment.”

[3] = tested on: bovine aorta endothelial (BAE) cells; assay: Test for inhibitory activity to growth of vascular endothelial cells, bovine aorta endothelial cells; assay type: cell-based; parameters: dose or concentration left out as unconfirmed; settings: cell count after 72 hours, plasminogen fragments
Description: The activity of the plasminogen fragments was also estimated as described by O'Reilly et al. using bovine aorta endothelial (BAE) cells purchased from Sanko Jun-yaku K.K. BAE cells were cultured for maintenance on a 24-well plate (manufactured by Iwaki Glass K.K.) coated with gelatin in a DMEM basal medium containing 10% fetal calf serum (FCS), 3 ng/ml basic FGF (bFGF), 1% glutamine, 1% penicillin and 1% streptomycin at 5% CO2. BAE cells were plated on a 24-well gelatin-coated plate at 12,500 cells/well and cultured on the basal medium deprived of bFGF for 24 hours. […] contained 5% FCS but was deprived of bFGF and the plasminogen fragments were reacted with the cells at 37° C. for 20 minutes. A physiological saline was used as a negative control whereas angiostatin (Angiostatin, manufactured by Technoclone) was used as a positive control. After reaction, the basal medium containing 5% FCS and 2 ng/ml bFGF was added and the cells were cultured at 37° C. for additional 72 hours. The cells were peeled off the well with trypsin/EDTA solution and counted with Coulter counter (manufactured by Coulter).

[4] = parameters: species or system mice; settings: mouse, in vivo, iv

B1: plasminogen fragments: plasminogen fragments comprising Kringles 1 to 4 produced by cleavage of plasminogen with PACE4 (protein)
chain: VIMAENRKSSIIIRMRDVVLFEKKVYLSECKTGNGKNYRGTMSKTKNGITCQKWSSTSPHRPRFSPATHPSEGLEENYCRNPDNDPQGPWCYTTDPEKRYDYCDILECEEECMHCSGENYDGKISKTMSGLECQAWDSQSPHAHGYIPSKFPNKNLKKNYCRNPDRELRPWCFTTDPNKRWELCDIPRCTTPPPSSGPTYQCLKGTGENYRGNVAVTVSGHTCQHWSAQTPHTHNRTPENFPCKNLDENYCRNPDGKRAPWCHTTNSQVRWEYCKIPSCDSSPVSTEQLAPTAPPELTPVVQDCYHGDGQSYRGTSSTTTTGKKCQSWSSMTPHRHQKTPENYPNAGLTMNYCRNPDADKGPWCFTTDPSVRWEYCNL
number of nodes representing metastasis and growth of cancer (Lung cancer cells (LL/2); 1 mg/mouse/day intraperitoneally for 10 days after removal of primary focus, n=6, control 6.3±0.2): 2.1 ± 0.8 | inhibitory activity to metastasis and growth of cancer cells (Lung cancer cells (LL/2); mouse model in which Lewis lung cancer was transplanted): had an inhibitory activity to metastasis and growth of cancer cells | safety in general pharmacological test (respiratory and circulatory organs) [1]: confirmed for their safety | weight of the lung ([2]; 25 μg/animal intraperitoneally for 10 days, dissected Day 11): 0.23 ± 0.08 g | weight of the lung ([2]; 1 mg/mouse/day intraperitoneally for 10 days): 0.23 ± 0.08 g | inhibitory activity to growth of the vascular endothelial cells [3]: no inhibitory activity | inhibitory activity to growth of the vascular endothelial cells ([3]; listed as plasminogen fragment): inhibitory effects to its growth have not been obtained | safety in single-dose toxicity test [4]: confirmed for their safety
